Earlier results in publication PMC3496018.

What was measured:
LRP6 (Homo sapiens) = LRP6 (Homo sapiens) (UniProt O75581)
[1] = target: Syndecan-4 (Homo sapiens) (UniProt P31431)
UniProt P31431, sequence (P31431 19-145): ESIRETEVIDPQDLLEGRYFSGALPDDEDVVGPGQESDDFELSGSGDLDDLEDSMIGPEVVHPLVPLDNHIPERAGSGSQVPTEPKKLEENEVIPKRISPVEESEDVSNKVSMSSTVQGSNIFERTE

UniProt O75581, sequence (O75581 20-1370): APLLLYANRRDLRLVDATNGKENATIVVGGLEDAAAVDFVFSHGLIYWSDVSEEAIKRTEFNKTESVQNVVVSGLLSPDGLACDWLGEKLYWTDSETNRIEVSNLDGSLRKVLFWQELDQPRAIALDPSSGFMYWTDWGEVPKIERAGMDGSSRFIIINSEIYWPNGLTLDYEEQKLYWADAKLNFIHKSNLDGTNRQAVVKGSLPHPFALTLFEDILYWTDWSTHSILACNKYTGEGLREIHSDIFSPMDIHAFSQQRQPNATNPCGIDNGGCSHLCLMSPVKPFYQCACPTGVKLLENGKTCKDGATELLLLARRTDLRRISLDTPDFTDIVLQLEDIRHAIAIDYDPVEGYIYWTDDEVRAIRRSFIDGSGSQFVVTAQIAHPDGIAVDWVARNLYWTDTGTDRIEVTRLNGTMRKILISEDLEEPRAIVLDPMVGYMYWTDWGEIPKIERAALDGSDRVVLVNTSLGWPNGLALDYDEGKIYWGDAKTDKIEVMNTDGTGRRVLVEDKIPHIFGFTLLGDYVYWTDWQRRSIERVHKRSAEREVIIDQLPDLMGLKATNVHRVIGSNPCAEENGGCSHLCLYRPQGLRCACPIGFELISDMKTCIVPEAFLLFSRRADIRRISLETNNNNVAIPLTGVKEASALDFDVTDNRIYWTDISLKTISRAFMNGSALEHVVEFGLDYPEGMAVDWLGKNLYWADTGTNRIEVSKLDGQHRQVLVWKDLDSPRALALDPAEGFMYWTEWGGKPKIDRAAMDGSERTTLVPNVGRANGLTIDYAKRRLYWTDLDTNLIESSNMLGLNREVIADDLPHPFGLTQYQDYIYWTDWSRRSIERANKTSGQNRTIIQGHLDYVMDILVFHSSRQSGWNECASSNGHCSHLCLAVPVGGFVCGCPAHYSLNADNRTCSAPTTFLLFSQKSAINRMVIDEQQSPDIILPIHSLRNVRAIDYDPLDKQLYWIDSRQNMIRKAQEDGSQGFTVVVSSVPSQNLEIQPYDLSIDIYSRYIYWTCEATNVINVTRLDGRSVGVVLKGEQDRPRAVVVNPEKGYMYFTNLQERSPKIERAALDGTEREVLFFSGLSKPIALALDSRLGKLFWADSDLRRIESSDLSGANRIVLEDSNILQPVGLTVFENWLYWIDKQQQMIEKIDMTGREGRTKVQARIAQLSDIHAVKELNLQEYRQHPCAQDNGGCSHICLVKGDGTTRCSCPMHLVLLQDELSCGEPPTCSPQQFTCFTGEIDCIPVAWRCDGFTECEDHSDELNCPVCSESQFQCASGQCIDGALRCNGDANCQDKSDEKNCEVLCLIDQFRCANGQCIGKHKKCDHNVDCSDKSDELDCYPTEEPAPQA

Substance | Kd (LRP6 (Homo sapiens)) [nM] | Kd [1] [nM]
RSPO1 (from UniProt Q2MKA7) | 1.2 | 
RSPO3 (from UniProt Q9BXY4) |  | 0.88
